B1: FAM-11T + MH (dsDNA)
DNA 1: CCAACCGACCACACCCACCACCCTACCGCCTTTTTTTTTTTCCCGGG
DNA 2: GGCGGTAGGGTGGTGGGTGTGGTCGGTTGG
B2: 11-nt poly(T) with MH (unlabeled) (dsDNA)
DNA 1: B1 DNA 1
DNA 2: B1 DNA 2
B3: FAM-15T no MH (dsDNA)
DNA 1: CCAACCGACCACACCCACCACCCTACCGCCTTTTTTTTTTTTTTTTT
DNA 2: B1 DNA 2
B4: 15-nt poly(T) without MH (unlabeled) (dsDNA)
DNA 1: CCAACCGACCACACCCACCACCCTACCGCCTTTTTTTTTTTTTTT
DNA 2: B1 DNA 2
B5: FAM-9T + MH (dsDNA)
DNA 1: CCAACCGACCACACCCACCACCCTACCGCCTTTTTTTTTCCCGGG
DNA 2: B1 DNA 2
B6: 9-nt poly(T) with MH (unlabeled) (dsDNA)
DNA 1: B5 DNA 1
DNA 2: B1 DNA 2

Assays:
[1] = target: T1, Polθ-hel WT (DNA polymerase theta helicase domain) (human, UniProt O75417 1-894); assay: fluorescence anisotropy
[2] = target: T1, Polθ-hel WT (DNA polymerase theta …); assay: cryo-EM structure
[3] = target: T1, Polθ-hel WT (DNA polymerase theta …); assay: EMSA

T1 sequence (O75417 1-894): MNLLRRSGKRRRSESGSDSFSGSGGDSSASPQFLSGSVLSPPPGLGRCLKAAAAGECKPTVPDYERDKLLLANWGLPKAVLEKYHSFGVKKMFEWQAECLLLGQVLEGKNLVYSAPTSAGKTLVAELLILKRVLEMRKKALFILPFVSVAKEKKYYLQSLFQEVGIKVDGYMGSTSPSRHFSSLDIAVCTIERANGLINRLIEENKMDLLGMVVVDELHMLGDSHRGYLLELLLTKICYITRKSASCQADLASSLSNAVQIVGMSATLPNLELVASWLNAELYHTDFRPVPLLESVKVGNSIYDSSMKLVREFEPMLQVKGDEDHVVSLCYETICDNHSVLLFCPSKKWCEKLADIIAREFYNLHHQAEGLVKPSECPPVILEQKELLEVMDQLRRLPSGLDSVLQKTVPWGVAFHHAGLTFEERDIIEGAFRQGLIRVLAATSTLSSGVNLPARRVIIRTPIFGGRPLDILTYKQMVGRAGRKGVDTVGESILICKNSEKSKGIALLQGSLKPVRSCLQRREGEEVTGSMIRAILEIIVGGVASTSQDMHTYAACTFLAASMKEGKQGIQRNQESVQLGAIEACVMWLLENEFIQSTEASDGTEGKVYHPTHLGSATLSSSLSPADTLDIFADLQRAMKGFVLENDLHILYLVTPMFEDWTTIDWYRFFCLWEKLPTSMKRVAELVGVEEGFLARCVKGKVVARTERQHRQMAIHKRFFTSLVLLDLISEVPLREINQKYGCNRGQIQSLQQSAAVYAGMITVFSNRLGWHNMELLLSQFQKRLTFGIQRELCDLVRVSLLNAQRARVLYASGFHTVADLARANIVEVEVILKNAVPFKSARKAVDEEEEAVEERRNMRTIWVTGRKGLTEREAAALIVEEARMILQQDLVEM

Binder	binding result [1]	binding result [3]	further results
B1	binds		
B2			binding result [2]: binds
B3	binds		
B4		binds	
B5	binds		
B6		binds	

— PMC12009414
